Measurements taken from the supplement of paper PMC10567573.

B1: FOXJ1 (parent)
chain: SAIYKWITDNFCYFRHADPTWQNS
B2: SMOC2 (parent)
chain: QKPLCASDGRTFLSRCEFQRAKCK

Variants of: B1
Assay: protein stability index of a GFP-peptide fusion (GPS, HEK-293T) (PSI 1-6); higher = more stable
Conditions: c terminus: a fixed tail appended
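Further: lentivirally expressed fusions sorted by FACS into six bins by GFP to DsRed ratio, PSI derived from sequencing read proportions per bin multiplied by bin number.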

Protein stability index, by site and new letter:
S24: D 4.48; M 2.55; R 2.43
Y13: A 3.53; C 2.83; E 1.03
W21: F 1.85; P 1.99; N 3.38; I 3.5; G 2.24; H 2.11; M 3.42
N23: E 3.59; Q 3.42; G 4.27; D 3.65
H16: S 3.5; L 4.65; T 2.32; A 2.55
I3: Q 2.1; M 3.21; T 1.7; L 2.36
W6: G 1.67; P 2.13; R 1.86; K 1.22
P19: A 3.17; F 4.12; D 1.69
C12: R 1.81; Q 1.81; Y 3.81; K 2.81; W 3.99; D 1.59; N 1.6; A 2.57
D9: P 2.83; E 3.89; A 2.74; L 2.65; R 3.41; M 3.64
Y4: H 2.58; L 2.95; P 2.27; N 2.71
R15: A 1.81; F 2.57; M 2.66; T 1.69; N 3.46; C 3.16; P 2.53
K5: L 2.73; C 2.24; R 3.05; G 3.71; M 3; Q 2.99
T8: I 1.8; P 1.86; E 2.79; C 2.73; N 3.01; G 2.05; S 4.33
Q22: W 1.86; P 3.76; C 3.38
A17: P 3.54; I 2.91; M 4.41; Y 2.86
T20: C 3; K 2.23; W 4.37; A 2.54; R 3.92; Y 2.55
S1: M 3.02; P 2.9; C 3.86; E 3.4; T 3.01; V 2.43; Y 2.05
A2: N 2.25; C 3.04; V 2.4
F14: I 4.22; D 2.64; A 2.32; W 2.73; E 2.23; S 2.13; H 2.56
F11: L 3.24; Q 2.21; D 1.49; G 1.96; R 3.03; C 2.68; E 1.89
I7: L 2.9; H 1.6; W 3.71; C 1.84; K 1.74; G 2.4; D 2.27
N10: R 2.2; H 2.3; C 2.08; V 1.74; M 2.89; P 2.13
D18: H 4.66; S 3.4; T 2.81; W 2.55; F 1.9; M 3.77

Variants of: B2
Assay: as above
Conditions: c terminus: a fixed tail appended

Protein stability index of substitutions, site by site:
P3: T 2.81; V 2.31; E 4.05; L 2.67; A 2.36; G 2.5; W 1.53
D8: Q 1.93; T 2.9; N 2.77; M 2.63; I 2.35
F18: R 4.37; K 4.62; P 3.49; S 3.82; E 4.73; M 3.67; D 4.12; H 4.32
G9: F 2.2; I 1.9; C 2.35; P 2.45; Q 2.64; L 2.68; R 2.94; D 3.99; E 3.48; S 3.42; H 2.75; N 2.82
C23: L 3.03; D 3.92; M 3.15; T 2.84; K 4.07; I 3.41; H 3.92; P 4.01
E17: V 2.82; F 2.32; P 3.07; L 2.29; Q 4.38; M 2.6; K 3.19; Y 3.05; W 1.54
L13: P 3.56; N 3.78; D 4.78; R 3.15; A 1.9; W 3.46; G 3.31
R10: M 2.72; P 3.11; S 3.84; L 3.04; T 3.54; N 1.99; C 2.89; E 3.27; I 2.53; D 3.76; Q 3.33; Y 2.91; G 3.17
Q19: A 2.98; I 3; Y 3.13; T 3.36; N 3.34; C 3.48; V 2.71; L 2; S 4.18; W 1.55; H 3.58
A6: Y 2.71; H 3.61; M 2.48; G 2.38; F 1.89; L 2.47; W 2.69
C5: V 3.16; Y 2.38; D 3.29; Q 2.88; S 2.91; T 3.41; A 3.31; R 2.5; W 2.31
C16: L 2.55; E 4.62; K 3.9; H 4.04; D 4.62; P 3.57
F12: Q 4.5; C 2.97; M 3.16
A21: H 2.7; P 3.98; D 3.17; Q 3.24; L 2.48; E 3.1; M 2.88; Y 2.58; S 3.14
S14: W 2.21; H 3.73; N 3.47; I 2.48; K 2.93
R15: V 3.71; A 3.65; Q 3.45; T 4.28; Y 3.09; C 3.06; S 3.41; L 3.65; D 4.47; H 3.79; W 3.32
Q1: N 3.36; D 2.68; C 1.87; A 2.81; V 2.58; Y 2.97; H 2.48; K 3.41; F 3.05; T 3.41; R 2.76
K24: V 2.62; N 2.48; S 2.88; G 2.95; E 3.19; C 1.98; Y 2.49; Q 2.64; L 2.5
K2: S 2.93; W 2.48; E 3.78; L 2.99; I 3.51; M 3.87; C 2.03; Y 2.48; A 2.61; D 3.62; P 3.18
T11: L 2.68; C 2.05; E 3.89; R 2.52; A 3.12; S 3.14; N 3.06; P 3.37; Q 3.74
L4: F 2.18; M 2.29; Y 1.99; P 2.79; T 2.65; E 3.77; H 2.59; R 3.25; K 2.52; V 2.52
K22: H 2.31; W 2.86; G 3.29; S 3.06; F 2.65; N 3.07; C 2.72; P 2.88; E 2.76; A 3.02; R 2.95
R20: M 3.57; S 3.19; K 3.47; F 2.29; N 3.1; H 2.77; W 2.4; A 3.14
S7: K 3.32; Y 2.15; N 3.76; W 2.85; A 2.33; T 2.5; E 2.86; D 3.36; P 3.45
